Read-outs that look alike come from different tables or passages of the source. Blank lines part the entries; values can stand above or below the substance they belong to.
Experiments:
[1] = target: human CTLA-4 (human) (UniProt P16410); test: flow cytometry, CHO cells stably expressing CTLA4
[2] = target: PD-L1 (human) (UniProt Q9NZQ7); test: flow cytometry, MFI on CHO/PD-L1 over MFI on Jurkat (CD28)
Target sequence in this assay (Q9NZQ7 19-290): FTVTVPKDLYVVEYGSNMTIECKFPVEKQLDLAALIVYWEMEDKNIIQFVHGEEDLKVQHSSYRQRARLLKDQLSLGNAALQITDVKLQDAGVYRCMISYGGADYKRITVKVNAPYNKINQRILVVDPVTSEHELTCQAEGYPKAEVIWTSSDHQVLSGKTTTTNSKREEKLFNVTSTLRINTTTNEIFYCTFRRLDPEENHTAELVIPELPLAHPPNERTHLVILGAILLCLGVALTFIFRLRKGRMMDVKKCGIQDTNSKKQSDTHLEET

[3] = target: CD28 (human) (UniProt P10747); test: flow cytometry, Jurkat cells (CD28)
[4] = target: PD-L1 (human) (UniProt Q9NZQ7); test: flow cytometry, CHO cells stably expressing PD-L1
Target sequence in this assay (Q9NZQ7 19-290): as above

[5] = target: PD-L1 (human) (UniProt Q9NZQ7)
Target sequence in this assay (Q9NZQ7 19-290): as above

[6] = target: CD28 (human) (UniProt P10747)
[7] = target: CD28 (human) (UniProt P10747); test: flow cytometry, Jurkat cells (CD28); remark: listed apart in the source
[8] = target: human CTLA-4 (human) (UniProt P16410); test: flow cytometry, CHO/CTLA4 cells; MFI over CD80 WT IgV-Fc
[9] = target: PD-L1 (human) (UniProt Q9NZQ7); remark: listed apart in the source
Target sequence in this assay (Q9NZQ7 19-290): as above

[10] = target: CD28 (human) (UniProt P10747); remark: listed apart in the source
[11] = target: human CTLA-4 (human) (UniProt P16410); test: flow cytometry, CHO cells stably expressing CTLA4; remark: listed apart in the source
[12] = target: PD-L1 (human) (UniProt Q9NZQ7); test: flow cytometry, CHO cells stably expressing PD-L1; remark: listed apart in the source
Target sequence in this assay (Q9NZQ7 19-290): as above

[13] = target: PD-L1 (human) (UniProt Q9NZQ7); test: flow cytometry, CHO/PD-L1 cells; MFI over CD80 WT IgV-Fc
Target sequence in this assay (Q9NZQ7 19-290): as above

[14] = target: CD28 (human) (UniProt P10747); test: flow cytometry, Jurkat cells (CD28); MFI over CD80 WT IgV-Fc
[15] = target: PD-L1 (human) (UniProt Q9NZQ7); test: flow cytometry, CHO/huPD-L1 cells; vs WT CD80 ECD-Fc (Abcam)
[16] = target: human CTLA-4 (human) (UniProt P16410); test: flow cytometry, CHO/huCTLA-4 cells; vs WT CD80 ECD-Fc (Abcam)
[17] = target: human CTLA-4 (human) (UniProt P16410); test: flow cytometry, CHO cells expressing huCTLA-4
[18] = target: CD28 (human) (UniProt P10747); test: flow cytometry, Jurkat/IL2 reporter cells (CD28)
[19] = target: PD-L1 (human) (UniProt Q9NZQ7); test: flow cytometry, CHO cells expressing huPD-L1
[20] = target: CD28 (human) (UniProt P10747); remark: listed apart in the source
[21] = target: PD-L1 (human) (UniProt Q9NZQ7); remark: listed apart in the source
[22] = target: CD28 (human) (UniProt P10747); remark: listed apart in the source
[23] = target: CD28 (human) (UniProt P10747); test: flow cytometry, Jurkat/IL2 reporter cells (CD28); remark: listed apart in the source
[24] = target: PD-L1 (human) (UniProt Q9NZQ7); remark: listed apart in the source
[25] = target: CD28 (human) (UniProt P10747); remark: listed apart in the source
[26] = target: PD-L1 (human) (UniProt Q9NZQ7); test: flow cytometry, CHO cells expressing huPD-L1; remark: listed apart in the source
[27] = target: CD28 (human) (UniProt P10747); test: flow cytometry, Jurkat/IL2 reporter cells (endogenous CD28)
[28] = target: PD-L1 (human) (UniProt Q9NZQ7); test: flow cytometry, CHO cells expressing huPD-L1; remark: listed apart in the source
[29] = target: CD28 (human) (UniProt P10747); test: flow cytometry, HEK293 cells transfected with full-length human CD28, PE anti-human Fc
[30] = target: CD28 (human) (UniProt P10747); remark: listed apart in the source
[31] = target: human CTLA-4 (human) (UniProt P16410); test: flow cytometry, CHO cells expressing huCTLA4

Sequence of human CTLA-4 (human) (P16410 36-223): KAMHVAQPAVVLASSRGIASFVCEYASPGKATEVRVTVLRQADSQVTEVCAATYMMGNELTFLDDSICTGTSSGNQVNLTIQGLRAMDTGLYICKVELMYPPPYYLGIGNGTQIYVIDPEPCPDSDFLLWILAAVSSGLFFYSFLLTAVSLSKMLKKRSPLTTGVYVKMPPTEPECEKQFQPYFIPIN
Sequence of WT CD80 ECD-Fc (inert) (Fc fusion) (chain): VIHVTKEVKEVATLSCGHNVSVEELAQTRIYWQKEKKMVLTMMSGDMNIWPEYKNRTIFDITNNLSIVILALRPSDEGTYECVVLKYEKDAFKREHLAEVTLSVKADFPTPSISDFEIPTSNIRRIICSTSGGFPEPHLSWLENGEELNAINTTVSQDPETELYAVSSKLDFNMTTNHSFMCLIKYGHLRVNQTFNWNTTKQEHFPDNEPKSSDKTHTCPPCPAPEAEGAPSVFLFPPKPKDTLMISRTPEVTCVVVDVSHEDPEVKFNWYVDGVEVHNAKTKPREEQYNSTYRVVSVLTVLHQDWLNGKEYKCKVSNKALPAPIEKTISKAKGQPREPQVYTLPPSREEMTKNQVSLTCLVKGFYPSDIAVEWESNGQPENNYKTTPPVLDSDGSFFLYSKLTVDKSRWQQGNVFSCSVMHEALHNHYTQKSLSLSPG

Substance: variant CD80 IgV-Fc (inert) H18Y/A26Q/E35D/M47T/V68M/A71G/D90G (Fc fusion)
MFI at 33.3 nM [7]: 6730 MFI
Fold change to WT CD80 [8]: 12 fold
IL2-luciferase reporter, fold increase in RLU over WT CD80-IgV-Fc at 5.0 nM [9]: 5.8 fold
IL2-luciferase reporter, fold increase in RLU over WT CD80-IgV-Fc at 5.0 nM [10]: 5.8 fold
MFI at 33.3 nM [11]: 16700 MFI
MFI at 33.3 nM [12]: 24400 MFI
Fold change to WT CD80 [13]: 148 fold
Fold change to WT CD80 [14]: 66 fold

Substance: CD80 IgV-Fc E35D/D46E/M47I/V68M/L85M (Fc fusion)
RLU at 5.0 nM: Fold Increase over WT CD80-IgV-Fc [21]: 3.1 fold
RLU at 5.0 nM: Fold Increase over WT CD80-IgV-Fc [22]: 3.1 fold

Substance: variant CD80 IgV-Fc D46V/V68M (Fc fusion)
Fold change to WT CD80 [15]: 17.7 fold
MFI at 33.3 nM [17]: 5330 MFI
MFI at 33.3 nM [18]: 556 MFI
MFI at 33.3 nM [19]: 2270 MFI

Substance: variant CD80 IgV-Fc Q27H/E35D/D46V/M47L/A71G (Fc fusion)
MFI at 33.3 nM [23]: 10400 MFI

Substance: CD80 IgV-Fc T13R/Q33L/E35D/M47V/T62S/V68M/L85M (Fc fusion)
RLU at 5.0 nM: Fold Increase over WT CD80-IgV-Fc [21]: 0.3 fold
RLU at 5.0 nM: Fold Increase over WT CD80-IgV-Fc [22]: 0.3 fold

Substance: CD80 IgV-Fc H18Y/E35D/M47I/V68M/Y87N (Fc fusion)
MFI at 33.3 nM [1]: 19700 MFI
MFI at 33.3 nM [3]: 1430 MFI
MFI at 33.3 nM [4]: 9300 MFI
RLU at 5.0 nM: Fold Increase over WT CD80-IgV-Fc [5]: 5.5 fold
RLU at 5.0 nM: Fold Increase over WT CD80-IgV-Fc [6]: 5.5 fold

Substance: variant CD80 IgV-Fc V22L/M38V/M47T/A71D/L85M (Fc fusion)
Fold increase in IL2 reporter signal (Jurkat/IL2 reporter assay) (fold vs WT CD80 IgV-Fc) [20]: 0.43

The next lines start with the values.

Fold change to WT CD80 [1]: 19.8 fold
MFI at 33.3 nM [1]: 20700 MFI
Ratio of PDL1:CD28 [2]: 3.5
Fold change to WT CD80 [3]: 69.1 fold
MFI at 33.3 nM [3]: 2850 MFI
Fold change to WT CD80 [4]: 140 fold
MFI at 33.3 nM [4]: 9890 MFI
RLU at 5.0 nM: Fold Increase over WT CD80-IgV-Fc [5]: 5.5 fold
RLU at 5.0 nM: Fold Increase over WT CD80-IgV-Fc [6]: 5.5 fold
Substance: CD80 IgV-Fc H18Y/E35D/M47L/V68M/A71G/L85M (Fc fusion)

Fold change to WT CD80 [15]: 46.7 fold
Fold change to WT CD80 [16]: 1 fold
MFI at 33.3 nM [17]: 40200 MFI
MFI at 33.3 nM [18]: 567 MFI
MFI at 33.3 nM [19]: 5980 MFI
Substance: variant CD80 IgV-Fc D46V/M47L/L85Q (Fc fusion)

Fold increase in IL2 reporter signal (Jurkat/IL2 reporter assay) (fold vs WT CD80 IgV-Fc) [20]: 0.2
Substance: variant CD80 IgV-Fc E35D/A71D (SEQ ID NO 194) (Fc fusion)

MFI at 33.3 nM [7]: 6790 MFI
Fold change to WT CD80 [8]: 12.4 fold
IL2-luciferase reporter, fold increase in RLU over WT CD80-IgV-Fc at 5.0 nM [9]: 4.8 fold
IL2-luciferase reporter, fold increase in RLU over WT CD80-IgV-Fc at 5.0 nM [10]: 4.8 fold
MFI at 33.3 nM [11]: 17200 MFI
MFI at 33.3 nM [12]: 52200 MFI
Fold change to WT CD80 [13]: 316 fold
Fold change to WT CD80 [14]: 66.6 fold
Substance: variant CD80 IgV-Fc (inert) H18Y/E35D/M47V/V68M/A71G/D90G (Fc fusion)

IL2-luciferase reporter (RLU), fold increase over WT CD80-IgV-Fc at 5.0 nM [24]: 1.2 fold
IL2-luciferase reporter (RLU), fold increase over WT CD80-IgV-Fc at 5.0 nM [25]: 1.2 fold
Substance: CD80 E35D/M47V/L85M/R94Q IgV-Fc (Fc fusion)

MFI at 33.3 nM [7]: 8060 MFI
Fold change to WT CD80 [8]: 18 fold
MFI at 33.3 nM [11]: 24900 MFI
MFI at 33.3 nM [12]: 73900 MFI
Fold change to WT CD80 [13]: 448 fold
Fold change to WT CD80 [14]: 79 fold
Substance: variant CD80 IgV-Fc (inert) H18V/A26S/E35D/M47L/V68M/A71G/D90G (Fc fusion)

RLU at 5.0 nM: Fold Increase over WT CD80-IgV-Fc [21]: 2.4 fold
RLU at 5.0 nM: Fold Increase over WT CD80-IgV-Fc [22]: 2.4 fold
Substance: CD80 IgV-Fc E35D/M47I/V68M/Y87N (Fc fusion)

MFI at 33.3 nM [26]: 7940 MFI
MFI at 33.3 nM [27]: 7630 MFI
MFI at 33.3 nM [23]: 18000 MFI
MFI at 33.3 nM [28]: 11900 MFI
Substance: WT CD80 ECD-Fc (R&D) (Fc fusion)

MFI at 66.6 nM [29]: 3070 MFI
Jurkat/IL2 reporter RLU at 50 nM, CHO/OKT3 aAPC without PD-L1 [30]: 420 RLU
Substance: WT CD80 ECD-Fc (inert) (Fc fusion)

MFI at 33.3 nM [31]: 807 MFI
MFI at 33.3 nM [23]: 11700 MFI
MFI at 33.3 nM [28]: 89800 MFI
MFI at 33.3 nM [17]: 20900 MFI
MFI at 33.3 nM [18]: 1350 MFI
MFI at 33.3 nM [19]: 14800 MFI
Substance: variant CD80 IgV-Fc E35D/M47V/N48K/V68M/K89N (Fc fusion)

Reference: patent publication US20220177587A1, “METHODS AND USES OF VARIANT CD80 FUSION PROTEINS AND RELATED CONSTRUCTS” (Alpine Immune Sciences, Inc., priority 2018, published 2022)
